Residue numbers refer to the chain shown, from its start.
B1: Mab 205.10.1 (antibody, V domains shown)
VH: QVQLVQSGAEVKKPGASVKVSCKASGYTFRSSYISWVRQAPGQGLEWMGWIYAGTGSPSYNQKLQGRVTMTTDTSTSTAYMELRSLRSDDTAVYYCARHRDYYSNSLTYWGQGTLVTVSS
VL: DIVMTQSPDSLAVSLGERATINCKSSQSLLNSGNQKNYLTWYQQKPGQPPKLLIYWASTRESGVPDRFSGSGSGTDFTLTISSLQAEDVAVYYCQSDYSYPYTFGQGTKLEIK
notes: Humanized anti-HER3 antibody; Only variable domains are tied to it
B2: Mab 205.10.3 (antibody, V domains shown)
VH: B1 VH
VL: B1 VL with A90S, V91I
notes: as for B1

Target: T1, human HER3 ECD (human, UniProt P21860 20-643)
T1 construct: also called hHER3-ECD; hu-HER3-ECD
Assay: SPR (Biacore T100), antibody captured by anti-Fc gamma antibody, human HER3 ECD 0-1000 nM as analyte, 25°C, Langmuir 1:1 model

Binder	Kd [nM]
B1	2
B2	2
